# Data reported in paper PMC4735526 (Nature Communications, 2016).
# Residue numbers refer to the chain shown, from its start.
# T1: T-STAR STAR (UniProt O75525 1-183)
# T1 sequence: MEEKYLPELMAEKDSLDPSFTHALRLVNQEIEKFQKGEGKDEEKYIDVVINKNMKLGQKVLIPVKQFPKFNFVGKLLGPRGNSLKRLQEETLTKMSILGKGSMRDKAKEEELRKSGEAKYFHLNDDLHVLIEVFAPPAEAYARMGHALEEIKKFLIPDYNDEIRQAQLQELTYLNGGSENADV
# T2: T-STAR QUA1-KH (UniProt O75525 1-160)
# T2 sequence: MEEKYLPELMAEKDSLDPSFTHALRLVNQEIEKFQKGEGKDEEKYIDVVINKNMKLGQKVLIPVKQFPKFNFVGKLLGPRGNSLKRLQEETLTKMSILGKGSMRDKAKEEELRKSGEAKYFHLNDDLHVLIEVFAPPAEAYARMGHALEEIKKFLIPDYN
# T3: T-STAR QUA1-KH Y141E (UniProt O75525 1-160, Y141E)
# T3 sequence: T2 sequence with Y141E
# T4: T-STAR STAR Y141E (UniProt O75525 1-183, Y141E)
# T4 sequence: T1 sequence with Y141E
# T5: T-STAR KH (UniProt O75525 50-160)
# T5 sequence: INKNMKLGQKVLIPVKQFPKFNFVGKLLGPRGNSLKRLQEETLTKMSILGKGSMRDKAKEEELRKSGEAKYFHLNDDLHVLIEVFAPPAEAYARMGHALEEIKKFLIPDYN
# T6: T-STAR KH-QUA2 (UniProt O75525 50-183)
# T6 sequence: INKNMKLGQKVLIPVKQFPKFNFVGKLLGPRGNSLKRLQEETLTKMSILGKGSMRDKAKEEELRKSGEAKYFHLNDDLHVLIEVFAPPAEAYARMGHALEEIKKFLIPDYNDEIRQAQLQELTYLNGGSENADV
# B1: SRE-4 (ssRNA)
# RNA: UUUGGGGGUUCAAUAAAAAUUUUCACUAUCCUAUUAACAGUUCCGCCGCUCC
# B2: T-STAR KH domain (amino acids 50-160) (domain or fragment, human, UniProt O75525 50-160, looked up)
# chain: T5 sequence
# notes: T-STAR/SLM2, human, KH domain, residues 50-160; The free KH structure (5EL3) was phased from a SeMet-labelled KH domain; the complex with AAAUAA is 5ELS; source: E. coli Rosetta BL21 DE3, purified (Ni-NTA, TEV cleavage, size-exclusion chromatography); not shown: His tag (inferred from the Ni-NTA purification)
# B3: T-STAR KH-QUA2 domain (amino acids 50-183) (domain or fragment, human, UniProt O75525 50-183, looked up)
# chain: T6 sequence
# notes: T-STAR/SLM2, human, KH and QUA2 domains, residues 50-183; Crystallised with AAUAAU RNA; QUA2 not seen in the electron density; source: E. coli Rosetta BL21 DE3, purified (Ni-NTA, TEV cleavage, size-exclusion chromatography); not shown: His tag (inferred from the Ni-NTA purification)
# B4: Sam68 STAR domain (amino acids 97-283) (domain or fragment, human, UniProt Q07666 97-283, looked up)
# chain: MEPENKYLPELMAEKDSLDPSFTHAMQLLTAEIEKIQKGDSKKDDEENYLDLFSHKNMKLKERVLIPVKQYPKFNFVGKILGPQGNTIKRLQEETGAKISVLGKGSMRDKAKEEELRKGGDPKYAHLNMDLHVFIEVFGPPCEAYALMAHAMEEVKKFLVPDMMDDICQEQFLELSYLNGVPEPSRG
# notes: Sam68 (Src-associated protein in mitosis of 68 kDa), human, STAR domain (QUA1, KH, QUA2), residues 97-283; also called Src-associated protein in mitosis of 68 kDa; source: E. coli Rosetta BL21 DE3, purified (Ni-NTA, TEV cleavage, size-exclusion chromatography); not shown: His tag (inferred from the Ni-NTA purification)
# B5: T-STAR STAR domain (amino acids 1-183) (domain or fragment, human, UniProt O75525 1-183, looked up)
# chain: T1 sequence
# notes: Crystallised with AUUAAA RNA; QUA2 region not seen in the electron density; also called SLM2; source: E. coli Rosetta BL21 DE3, purified (Ni-NTA, TEV cleavage, size-exclusion chromatography); not shown: His tag (inferred from the Ni-NTA purification)
# B6: T-STAR QUA1-KH domain (domain or fragment, human)
# chain: T2 sequence
# notes: T-STAR/SLM2, human, QUA1 and KH domains with the linker between them; by the limits of the STAR (1-183) and KH (50-160) constructs they may be 1-160 (surmised); source: E. coli Rosetta BL21 DE3, purified (Ni-NTA, TEV cleavage, size-exclusion chromatography); not shown: His tag (inferred from the Ni-NTA purification)
# Biological target: T1, T-STAR STAR
# Experiment: fluorescence polarization; 10 mM Tris pH 7, 100 mM NaCl, 0.1% beta-mercaptoethanol; 0.2 uM fluorescein-labelled RNA; protein 0-200 uM; temperature not stated
row,Molecule,Kd [µM]
1,UAAACCCCCCCCCCCCCCCUAAA (ssRNA) [UAAA-C15-UAAA],6.7
2,CCCAAUUAACUAACUAACUAACUUUAAAA (ssRNA) [Nrxn2],1.1
3,B1,8.5
4,UAAACCCCCUAAA (ssRNA) [UAAA-C5-UAAA],5.9
5,UAAACCC (ssRNA),7
6,UCCGGAUUGGCCUAAAUAGAUGCGCGAUAAUAAUAGAGUA (ssRNA) [G7.1],5.4
7,CUGGGUGACACACUAGCUAUAGCAUUAAAAGACCGAGCAAGU (ssRNA) [G8.5],11.7
8,UAAACCCCCCCCCCUAAA (ssRNA) [UAAA-C10-UAAA],7

# Biological target: Sam68 QUA1-KH (UniProt Q07666 97-260)
# Experiment: as above
row,Molecule,Kd [µM]
1,UAAACCCCCCCCCCCCCCCUAAA (ssRNA) [UAAA-C15-UAAA],26.3
2,AUAAA (ssRNA),55
3,CCCAAUUAACUAACUAACUAACUUUAAAA (ssRNA) [Nrxn2],2.2
4,CUAAA (ssRNA),34
5,B1,19.1
6,UAAACCCCCUAAA (ssRNA) [UAAA-C5-UAAA],42.7
7,AAAAA (ssRNA),13
8,UAAACCC (ssRNA),50
9,UUAAA (ssRNA),50
10,UCCGGAUUGGCCUAAAUAGAUGCGCGAUAAUAAUAGAGUA (ssRNA) [G7.1],4.3
11,AUAAU (ssRNA),49
12,CUGGGUGACACACUAGCUAUAGCAUUAAAAGACCGAGCAAGU (ssRNA) [G8.5],10.3
13,UAAACCCCCCCCCCUAAA (ssRNA) [UAAA-C10-UAAA],37.3

# Biological target: T2, T-STAR QUA1-KH
# Experiment: as above
row,Molecule,Kd [µM]
1,UAAACCCCCCCCCCCCCCCUAAA (ssRNA) [UAAA-C15-UAAA],6.8
2,AUAAA (ssRNA),37
3,CCCAAUUAACUAACUAACUAACUUUAAAA (ssRNA) [Nrxn2],1.7
4,CUAAA (ssRNA),18
5,B1,9.4
6,UAAACCCCCUAAA (ssRNA) [UAAA-C5-UAAA],5.5
7,AAAAA (ssRNA),6
8,UAAACCC (ssRNA),7.9
9,UUAAA (ssRNA),16
10,UCCGGAUUGGCCUAAAUAGAUGCGCGAUAAUAAUAGAGUA (ssRNA) [G7.1],4.5
11,AUAAU (ssRNA),45
12,CUGGGUGACACACUAGCUAUAGCAUUAAAAGACCGAGCAAGU (ssRNA) [G8.5],8.1
13,UAAACCCCCCCCCCUAAA (ssRNA) [UAAA-C10-UAAA],8.6
14,ACAAA (ssRNA),55
15,AUAAC (ssRNA),47

# Biological target: Sam68 QUA1-KH Y241E (UniProt Q07666 97-260, Y241E)
# Experiment: as above
row,Molecule,Kd [µM]
1,UAAACCCCCCCCCCCCCCCUAAA (ssRNA) [UAAA-C15-UAAA],4
2,UAAACCCCCUAAA (ssRNA) [UAAA-C5-UAAA],4.6
3,UAAACCC (ssRNA),27.1
4,UAAACCCCCCCCCCUAAA (ssRNA) [UAAA-C10-UAAA],3.9

# Biological target: T7, Sam68 STAR (UniProt Q07666 97-283)
# Experiment: as above
row,Molecule,Kd [µM]
1,CCCAAUUAACUAACUAACUAACUUUAAAA (ssRNA) [Nrxn2],3.7
2,B1,65.7
3,UCCGGAUUGGCCUAAAUAGAUGCGCGAUAAUAAUAGAGUA (ssRNA) [G7.1],8.2
4,CUGGGUGACACACUAGCUAUAGCAUUAAAAGACCGAGCAAGU (ssRNA) [G8.5],36.1

# Biological target: T3, T-STAR QUA1-KH Y141E
# Experiment: as above
row,Molecule,Kd [µM]
1,UAAACCCCCCCCCCCCCCCUAAA (ssRNA) [UAAA-C15-UAAA],4.7
2,UAAACCCCCUAAA (ssRNA) [UAAA-C5-UAAA],5.3
3,UAAACCC (ssRNA),10.9
4,UAAACCCCCCCCCCUAAA (ssRNA) [UAAA-C10-UAAA],4.4

# Biological target: T4, T-STAR STAR Y141E
# Experiment: as above
row,Molecule,Kd [µM]
1,UAAACCCCCCCCCCCCCCCUAAA (ssRNA) [UAAA-C15-UAAA],4.7
2,UAAACCCCCUAAA (ssRNA) [UAAA-C5-UAAA],5.1
3,UAAACCC (ssRNA),6.8
4,UAAACCCCCCCCCCUAAA (ssRNA) [UAAA-C10-UAAA],4.9

# Biological target: the molecule itself
# Experiment: crystal structure; T-STAR constructs in complex with short RNAs (protein/RNA 1:2), sitting drop vapour diffusion at 4 °C; protein in 10 mM Tris pH 7.0, 50 mM NaCl
row,Molecule,binding result
1,B2,binds
2,B3,binds

# Biological target: Sam68 QUA1-KH domain (human)
# Experiment: SAXS; 25 °C, 1-20 mg/ml protein in the NMR buffers, in the absence and presence of AAAUAA RNA (10 mg/ml protein, protein/RNA 1:1); molecular weights from Porod volumes
row,stoichiometry N,Molecule
1,2,Sam68 QUA1-KH domain (domain or fragment)

# Biological target: the molecule itself
# Experiment: as above
row,Molecule,stoichiometry N
1,B4,2
2,B5,2
3,B6,2

# Biological target: T1, T-STAR STAR
# Experiment: X-ray crystallography; FP: 10 mM Tris pH 7, 100 mM NaCl, 0.1% beta-mercaptoethanol, 0.2 uM fluorescein-RNA, protein 0-200 uM, temperature not stated; NMR 303 K: Sam68 in 10 mM Tris pH
row,Molecule,binding result
1,AUUAAA (ssRNA),binds

# Biological target: T2, T-STAR QUA1-KH
# Experiment: as above
row,Molecule,binding result
1,UAAU (ssRNA),binds

# Biological target: T5, T-STAR KH
# Experiment: as above
row,Molecule,binding result
1,AAAUAA (ssRNA),binds

# Biological target: T6, T-STAR KH-QUA2
# Experiment: as above
row,Molecule,binding result
1,AAUAAU (ssRNA),binds

# Biological target: T7, Sam68 STAR
# Experiment: NMR chemical shift perturbation; FP: 10 mM Tris pH 7, 100 mM NaCl, 0.1% beta-mercaptoethanol, 0.2 uM fluorescein-RNA, protein 0-200 uM, temperature not stated; NMR 303 K: Sam68 in 10 mM Tris pH
row,Molecule,binding result
1,AUUAAA (ssRNA),binds
